Substitutions are numbered along the chain they refer to. Names and notes keep the numbering of the source.
B1: C33B48 (antibody, IgG1, V domains shown)
VH: QVQLVQSGSELRKPGASVKVSCKASGYTFTNYAMNWVRQAPGQGLEWMGWINTNTGNPTYAQGFTGRFVFSLDTSVSSAYLQISSLKAEDTAMYYCATDRDRGTDYWGQGTLVTVSS
VL: QSALTQPASVSGSPGQSITISCTGTSSDVGDYNYVSWYQQHPGKVPKLMIYDVSNRPSGVSNRFSGSMSGNTASLTISGLQAEDEADYYCSSYSSSSALEVFGGGTKLTVL
notes: huIgG1 F405L; also called C33F53; C33H80/C33L73
B2: C33B46 (antibody, IgG1, V domains shown)
VH: B1 VH with R12K, T30S, N31T, S78T, M93V, T98R
VL: B1 VL with Y32D, V45A, M68K, A82S, S97T, A98T
notes: huIgG1 F405L; also called C33F51; C33H108/C33L74
B3: C33B61 (antibody, V domains shown)
VH: QLQLQESGPGLVKPSETLSLTCTVSGGSIRSTNYYWGWIRQPPGKGLEWIGTIYYSGNTYYNPSLKSRVTISVDTSKNQFSLKLSSVTAADTAVYYCARLADVVVVPAARYFDYWGQGILVTVSS
VL: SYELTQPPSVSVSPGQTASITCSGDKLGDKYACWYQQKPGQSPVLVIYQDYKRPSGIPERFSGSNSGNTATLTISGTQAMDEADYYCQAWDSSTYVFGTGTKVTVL
notes: huIgG1 F405L; also called C33F66; C33H48/C33L58
B4: C33B123 (antibody, IgG1, V domains shown)
VH: B3 VH with R30S, T32R, N33S, Y34H, K45V, T52S, S56T, N58S, V103I, I119T
VL: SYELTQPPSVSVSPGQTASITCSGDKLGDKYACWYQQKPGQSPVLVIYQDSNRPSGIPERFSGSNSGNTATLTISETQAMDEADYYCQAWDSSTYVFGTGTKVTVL
notes: huIgG1 F405L; also called C33F128; C33H91/C33L44
B5: C33B62 (antibody, IgG1, V domains shown)
VH: B3 VH with T32S, N33G, Y34F, G44R, Y96F, Y114N, I119T
VL: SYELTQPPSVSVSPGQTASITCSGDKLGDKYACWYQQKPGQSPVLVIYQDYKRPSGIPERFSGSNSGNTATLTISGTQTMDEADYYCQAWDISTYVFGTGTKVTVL
notes: huIgG1 F405L; also called C33F67; C33H49/C33L59
B6: C33B96 (antibody, IgG1, V domains shown)
VH: EVQLVESGGGLVQPGGSLRLSCAASGFTFSSYWMTWVRPAPGKGLEWVANIKRDGGEKYYVDSVKGRFTISRDNAANSLYLQMNSLRVEDTAVYYCARPFYDHFDYWGQGTLVTVSS
VL: SYVLTQPPSVAVAPGQTARITCGGSNIGKISVHWYQQKAGQAPVLVVHDDRARPSGIPERLSGSNSGTTATLTISRVEVGDEADYYCQVWNSSSVHPVFGGGTKLTVL
notes: huIgG1 F405L; also called C33F101; C33H99/C33L37
B7: C33B122 (antibody, IgG1, V domains shown)
VH: QLQLQESGPGLVKPSETLSLTCTVSGGSIRSSSYYWGWIRQPPGKGPEWIGSIYSSGNTYYNPSLKSRVTISVDTSKNQFSLKLISMTAADTAVFYCARLAATIVVPAARYFDCWGQGTLVTVSS
VL: SYELTQPPSVSVSPGQTVSISCSGDRLGDKYACWYQQKPGQSPVLVIYQDSKRPSGIPERFSGSNSGNTATLTISGTQAMDEADYYCQAWDSSSYVFGTGTKVTVL
notes: huIgG1 F405L; also called C33F127; C33H92/C33L30

What follows are binders tested against T1, Human CD33 full length, expressed on HEK293F cells (human, UniProt P20138 18-364) (assay: flow cytometry, HEK293F cells expressing human CD33).
T1 construct: HEK293F cells transduced with lentivirus containing full length human CD33; also called huCD33
Method: (§1) OMNIRat antibodies identified via immunization, v-region cloned and subsequently expressed and purified were characterized further for binding to CD33 expressing cells and binding to recombinant antigens. The purified antibodies were assessed for binding to stably transfected HEK293F cells expressing human CD33 or cyno CD33 (generation described above) along with the parental HEK293F as negative control. Cells were harvested from tissue culture flasks using non-enzymatic dissociation buffer (Thermo Scientific). The flasks were rinsed twice with PBS and dissociation buffer was added to the flask, and the flask was incubated for 10 minutes at 37° C. until the cells became non-adherent. The cells were centrifuged at 300 g for 5 minutes and resuspended at 1.0×10⁶ cells/ml in staining buffer (Becton Dickinson; Franklin Lakes, NJ). 50,000 cells/well of each cell type was plated in 50 μl of staining buffer in round bottom plates (Becton Dickinson). […] 100 μl staining buffer was added to all wells of each plate, the plates were spun at 300 g for 5 min, the buffer was removed, 200 μl staining buffer was added to all wells of each plate, the plates were spun at 300 g for 5 min, and the buffer was removed. 50 μl of 2 μg/ml of Goat-anti-human Fc AF647 secondary antibody (Jackson Immunoresearch; West Grove, PA) was added to all wells of the plates, and the plates were incubated for 30 min at 4° C. 100 μl staining buffer was added to all wells of the plates, the plates were spun at 300 g for 5 min, and the buffer was removed. 200 μl running buffer (running buffer is Staining buffer, 1 mM EDTA, 0.1% Pluronic Acid) was added to all wells of the plates, the plates were spun at 300 g for 5 min, and the buffer was removed. 30 μl running buffer containing Sytox Green live/dead dye (ThermoFisher) was added to all wells with cells and the plates were read on an iQue IntelliCyt flow cytometer. Cells were gated on forward vs. side scatter to eliminate debris, then on singlets and then on live cells which excluded the Sytox stain. Antibody binding was assessed by the mean fluorescence intensity in the AF647 channel.

T1 sequence (P20138 18-364 limits assumed): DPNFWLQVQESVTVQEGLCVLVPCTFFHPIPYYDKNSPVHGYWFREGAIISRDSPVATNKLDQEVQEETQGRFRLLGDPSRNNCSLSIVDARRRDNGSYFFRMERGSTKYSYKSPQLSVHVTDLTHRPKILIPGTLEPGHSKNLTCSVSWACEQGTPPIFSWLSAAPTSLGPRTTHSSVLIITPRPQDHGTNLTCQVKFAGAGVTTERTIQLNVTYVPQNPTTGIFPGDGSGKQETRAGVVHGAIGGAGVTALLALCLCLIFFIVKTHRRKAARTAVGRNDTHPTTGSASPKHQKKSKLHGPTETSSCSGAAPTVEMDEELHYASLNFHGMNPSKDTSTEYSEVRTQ

Binder | MFI at 0 nM mAb (background) | MFI at 0.6 nM mAb | MFI at 6 nM mAb | MFI at 60 nM mAb
B1 | 91.1 MFI | 391000 MFI | 429000 MFI | 401000 MFI
B2 | 135 MFI | 418000 MFI | 448000 MFI | 510000 MFI
B3 | 79.8 MFI | 5310 MFI | 38700 MFI | 199000 MFI
B4 | 71 MFI | 8860 MFI | 88200 MFI | 224000 MFI
B5 | 75 MFI | 6090 MFI | 37400 MFI | 158000 MFI
B6 | 55.2 MFI | 188000 MFI | 476000 MFI | 476000 MFI
B7 | 65 MFI | 14300 MFI | 84300 MFI | 259000 MFI

What follows are binders tested against T2, Cyno CD33 ECD-HSA (cynomolgus monkey) (assay: SPRi off-rate screen (IBIS MX96), mAb captured by anti-human Fc; column head prints Cyno CD33 binding KD).
T2 construct: Cyno CD33 extracellular domain fused to monomeric human serum albumin and a six-histidine tag; also called C33W1
Method: (§2) To begin assessing the biophysical binding properties of the purified mAbs an off-rate screen was performed. 76 OMNIRat anti-CD33 mAbs were tested for binding to recombinant human CD33 ECD-HSA (C33W2) and cyno CD33 ECD-HSA (C33W1) proteins (Janssen production) and the off-rate was measured by IBIS MX96 SPRi array platform (Carterra; Newton, PA). […] The sensor chip was transferred to the Continuous Flow Microspotter (CFM) unit to capture each anti-CD33 mAb at 10 μg/ml for 10 minutes. Binding was measured on IBIS SPRi by single cycle kinetics without regeneration. […] The raw binding data (.trix file format) were referenced and aligned using SprintX software (Wasatch, Ver 1.9.3.2), then exported (.ibmx file format) to Scrubber software (Ver. 2.0) for 1:1 binding kinetic analyses (Wasatch, version 2.0.0.33) to extract the koff results.

Binder | koff
B1 | 0.00012 s⁻¹
B2 | 0.000148 s⁻¹
B3 | 0.00183 s⁻¹
B4 | 0.00274 s⁻¹
B5 | 0.00132 s⁻¹
B6 | 0.000819 s⁻¹
B7 | 0.00145 s⁻¹

Each binder was assayed against Human CD33 ECD-HSA (human) (assay: ProteOn SPR, mAb captured by anti-human Fc, 1:1 Langmuir fit).
Method: (§3) The panel of mAbs was then further characterized for full affinity analysis as well as epitope binning. The binding of anti-CD33 mAbs to recombinant human CD33 ECD-HSA (C33W2) and cyno CD33 ECD-HSA (C33W1) was measured by ProteOn SPR (Bio-Rad). […] Different mAbs were captured on the anti-human Fc IgG surface at 0.25 or 0.5 μg/ml (160-300 RU) in vertical ligand orientation, with the 6th ligand channel as no ligand surface control. Human and cyno CD33-HSA proteins at 0.3 μM concentration in 3-fold dilution series of 5 concentrations flew in as analyte to bind to captured mAbs in the horizontal orientation. A buffer sample was also injected in the 6th channel to monitor the dissociation of captured mAb and baseline stability. […] The raw biding data were processed by double referencing after subtracting the response data from: 1) the inter-spot to correct for the non-specific interactions between the Ag and the empty chip surface; 2) the buffer channel to correct for baseline drifting due to the dissociation of captured mAb surface over time. The processed data at all antigen concentrations for each mAb were globally fit to a 1:1 simple Langmuir binding model to extract estimates of the kinetic (kₒₙ, koff) and affinity (Kd) constants.

Chain of Human CD33 ECD-HSA (human) (chain, as listed by the source): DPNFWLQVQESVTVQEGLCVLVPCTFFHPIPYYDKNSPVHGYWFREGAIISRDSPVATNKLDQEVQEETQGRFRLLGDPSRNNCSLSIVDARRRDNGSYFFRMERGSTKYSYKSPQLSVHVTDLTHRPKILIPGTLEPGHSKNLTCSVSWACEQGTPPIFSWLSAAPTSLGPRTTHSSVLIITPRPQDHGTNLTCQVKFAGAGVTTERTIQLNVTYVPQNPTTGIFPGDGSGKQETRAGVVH

Binder | Kd | koff | kon
B1 | 0.0112 nM | 1.82e-05 s⁻¹ | 1.62e+06 M⁻¹ s⁻¹
B2 | 1.38 nM | 0.00199 s⁻¹ | 1.45e+06 M⁻¹ s⁻¹
B3 | 21.4 nM | 0.0105 s⁻¹ | 489000 M⁻¹ s⁻¹
B4 | 14.8 nM | 0.0152 s⁻¹ | 1.02e+06 M⁻¹ s⁻¹
B5 | 24.9 nM | 0.0126 s⁻¹ | 507000 M⁻¹ s⁻¹
B6 | 1.92 nM | 0.000436 s⁻¹ | 226000 M⁻¹ s⁻¹
B7 | 9.53 nM | 0.00712 s⁻¹ | 747000 M⁻¹ s⁻¹

These binders were tested against T2, Cyno CD33 ECD-HSA in the same assay as above.
Method: as §3

Binder | Kd | koff | kon
B1 | 0.0366 nM | 0.000158 s⁻¹ | 4.31e+06 M⁻¹ s⁻¹
B2 | 0.126 nM | 0.000375 s⁻¹ | 2.97e+06 M⁻¹ s⁻¹
B3 | 2.21 nM | 0.00162 s⁻¹ | 734000 M⁻¹ s⁻¹
B4 | 2.69 nM | 0.00339 s⁻¹ | 1.26e+06 M⁻¹ s⁻¹
B5 | 1.85 nM | 0.00149 s⁻¹ | 805000 M⁻¹ s⁻¹

What follows are binders tested against T3, Cyno CD33 full length, expressed on HEK293F cells (cynomolgus monkey) (assay: flow cytometry, HEK293F cells expressing cyno CD33).
T3 construct: HEK293F cells transduced with lentivirus containing full length cyno CD33 (Genbank XP_005590138.1); also called cyCD33
Method: as §1

Binder | MFI at 0 nM mAb (background) | MFI at 0.6 nM mAb | MFI at 6 nM mAb | MFI at 60 nM mAb
B1 | 94 MFI | 43400 MFI | 47300 MFI | 56500 MFI
B2 | 92 MFI | 49700 MFI | 49800 MFI | 49800 MFI
B3 | 107 MFI | 1600 MFI | 8210 MFI | 13600 MFI
B4 | 61.1 MFI | 3230 MFI | 10400 MFI | 10700 MFI
B5 | 934 MFI | 1920 MFI | 5620 MFI | 12700 MFI
B6 | 86.3 MFI | 11600 MFI | 20100 MFI | 37300 MFI
B7 | 82.5 MFI | 5840 MFI | 13900 MFI | 19700 MFI

The binders below were run against Human CD33 ECD-HSA (human) (assay: SPRi off-rate screen (IBIS MX96), mAb captured by anti-human Fc; column head prints KD).
Method: as §2

Binder | koff
B1 | 5.47e-05 s⁻¹
B2 | 0.000467 s⁻¹
B3 | 0.00671 s⁻¹
B4 | 0.0103 s⁻¹
B5 | 0.01 s⁻¹
B6 | 0.000228 s⁻¹
B7 | 0.00874 s⁻¹

Source: US20230322924A1 (Janssen / Centocor, published 2023)
